Source: patent US20180185450A1 (Sanofi, published 2018)
Like-named read-outs stand apart in the source and are kept apart here. Numbered stars: 1 amine (or outer) side, 2 acyl side, 3 side chain; on linkers, the order of the positions; unused ones are H or OH. Square brackets hold non-standard residues; d marks the D form. Side chains are listed from the residue outwards. Ends that are not written are not given here. γGlu = O=C(O)[C@H](CCC(=O)[*:2])N[*:1]; x53 = not defined here; x70 = not defined here; Aib = CC(C)(N)C(=O)O

Columns and labels:
Test in all cases: cell-based or functional assay
[1] = target: T1, human GLP-1 receptor (human, UniProt P43220 24-463)
[2] = target: T2, human glucagon receptor (human, UniProt P47871 26-477)
T2 sequence (P47871 26-477): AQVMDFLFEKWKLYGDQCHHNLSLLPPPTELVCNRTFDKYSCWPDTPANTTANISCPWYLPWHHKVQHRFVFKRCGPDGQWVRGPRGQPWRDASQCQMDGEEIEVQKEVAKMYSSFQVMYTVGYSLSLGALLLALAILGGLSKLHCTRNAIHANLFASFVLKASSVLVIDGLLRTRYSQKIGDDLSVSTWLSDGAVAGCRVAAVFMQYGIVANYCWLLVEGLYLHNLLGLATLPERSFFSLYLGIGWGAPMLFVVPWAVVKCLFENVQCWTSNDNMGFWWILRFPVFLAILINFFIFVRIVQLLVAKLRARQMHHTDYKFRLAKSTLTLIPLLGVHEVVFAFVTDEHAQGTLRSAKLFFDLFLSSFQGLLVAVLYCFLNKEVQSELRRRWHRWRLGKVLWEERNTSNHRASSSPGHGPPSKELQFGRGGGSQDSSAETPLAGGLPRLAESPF

[3] = target: T1, human GLP-1 receptor; remark: listed apart in the source
[4] = target: T2, human glucagon receptor; remark: listed apart in the source

Row | Binder | EC50 hGLP-1R (cAMP) [1] [nM] | EC50 hGlucagon-R (cAMP) [2] [nM] | EC50 hGLP-1R (cAMP) [3] [nM] | EC50 hGlucagon-R (cAMP) [4] [nM]
1 | HXQGTFTSDLSKQKDSRRAQDFIEWLKAGGPSSGAPPPS (dSer at 2; K(γE-x53) at 14; C-terminal NH2) [SEQ ID NO: 74] | 0.0042 | 0.0013 | 0.0042 | 0.0013
2 | HXQGTFTSDLSKQKESKAAQLFIEWLKAGGPSSGAPPPS (dSer at 2; K(γE-x53) at 14; C-terminal NH2) [SEQ ID NO: 29] | 0.0059 | 0.0879 |  | 
3 | HXQGTFTSDLSKQKDSRRAQDFIEWLKNGGPSSGAPPPS (dSer at 2; C-terminal NH2) [SEQ ID NO: 183] |  |  | 1.02 | 0.916
4 | HXQGTFTSDLSKQKESRAAQDFIEWLKAGGPSSGAPPPS (dSer at 2; K(γE-γE-x53) at 14; C-terminal NH2) [SEQ ID NO: 49] | 0.0011 | 0.0029 |  | 
5 | HXQGTFTSDLSKQKESRAAQEFIEWLKAGGPSSGAPPPS (dSer at 2; K(γE-x53) at 14; C-terminal NH2) [SEQ ID NO: 47] | 0.0022 | 0.0103 |  | 
6 | HXQGTFTSDLSKQMESRRAQDFIEWLKAGGPSSGAPPPS (dSer at 2; C-terminal NH2) [SEQ ID NO: 184] |  |  | 0.0857 | 0.991
7 | HXQGTFTSDLSKQKESQAAQDFIEWLKAGGPSSGAPPPS (dSer at 2; K(γE-x70) at 14; C-terminal NH2) [SEQ ID NO: 40] | 0.0026 | 0.0048 |  | 
8 | HXQGTFTSDLSKQMDSRRAQDFIEWLKRGGPSSGAPPPS (dSer at 2; C-terminal NH2) [SEQ ID NO: 185] |  |  | 0.0757 | 0.262
9 | HXQGTFTSDLSKQKESQAAQDFIEWLKAGGPSSGAPPPS (dSer at 2; K(γE-x53) at 14; C-terminal NH2) [SEQ ID NO: 35] | 0.0015 | 0.0142 |  | 
10 | HXQGTFTSDLSKQKDEKAAQDFIEWLKAGGPSSGAPPPS (dSer at 2; K(γE-x53) at 14; C-terminal NH2) [SEQ ID NO: 22] | 0.0011 | 0.0024 |  | 
11 | HXQGTFTSDLSKQKESRAAQDFIEWLKAGGPSSGAPPPS (dSer at 2; K(γE-x53) at 14; C-terminal NH2) [SEQ ID NO: 44] | 0.0027 | 0.012 |  | 
12 | HXQGTFTSDLSKQKESQAAQEFIEWLKAGGPSSGAPPPS (dSer at 2; K(γE-x53) at 14; C-terminal NH2) [SEQ ID NO: 37] | 0.0015 | 0.0129 |  | 
13 | HXQGTFTSDLSKQMESRRAXDFIEWLKAGGPSSGAPPPS (dSer at 2; Aib at 20; C-terminal NH2) [SEQ ID NO: 190] |  |  | 0.0213 | 1.56
14 | HXQGTFTSDLSKQMESKAAQDFIEWLKAGGPSSGAPPPS (dSer at 2; C-terminal NH2) [SEQ ID NO: 189] |  |  | 0.0056 | 1.68
15 | HXQGTFTSDLSKQKDSRRAQDFIEWLKKGGPSSGAPPPS (dSer at 2; K(γE-x53) at 14; C-terminal NH2) [SEQ ID NO: 84] | 0.0081 | 0.0043 | 0.0081 | 0.0043
16 | HXQGTFTSDLSKQKESRAAXLFIEWLKAGGPSSGAPPPS (dSer at 2; K(γE-x53) at 14; Aib at 20; C-terminal NH2) [SEQ ID NO: 46] | 0.0032 | 0.0251 |  | 
17 | HXQGTFTSDLSKQMDSRRAQDFIEWLKNGGPSSGAPPPS (Aib at 2; C-terminal NH2) [SEQ ID NO: 182] |  |  | 0.0058 | 0.419
18 | HXQGTFTSDLSKQKDSRRAQDFIEWLKNGGPSSGAPPPS (dSer at 2; K(γE-x53) at 14; C-terminal NH2) [SEQ ID NO: 97] | 0.0035 | 0.001 |  | 0.0012
19 | HXQGTFTSDLSKQKESRRAQDFIEWLKAGGPSSGAPPPS (dSer at 2; K(Ac) at 14; C-terminal NH2) [SEQ ID NO: 194] |  |  | 0.159 | 1.29
20 | HXQGTFTSDLSKQKESRRAXDFIEWLKAGGPSSGAPPPS (dSer at 2; K(γE-x53) at 14; Aib at 20; C-terminal NH2) [SEQ ID NO: 75] | 0.0111 | 0.0125 | 0.0111 | 0.0125
21 | HXQGTFTSDLSKQKESKAAQLFIEWLKAGGPSSGAPPPS (dSer at 2; K(γE-x70) at 14; C-terminal NH2) [SEQ ID NO: 27] | 0.0077 | 0.0251 |  | 
22 | HXQGTFTSDLSKQKDSRRAQDFIEWLKXGGPSSGAPPPS (dSer at 2; K(γE-x53) at 14; Aib at 28; C-terminal NH2) [SEQ ID NO: 78] | 0.0178 | 0.0016 | 0.0178 | 0.0016
23 | HXQGTFTSDLSKQKESKAAQDFIEWLKAGGPSSGAPPPS (dSer at 2; K(γE-x70) at 14; C-terminal NH2) [SEQ ID NO: 26] | 0.0051 | 0.0054 |  | 

Row | Binder | EC50 hGLP-1R (cAMP) [1] [nM] | EC50 hGlucagon-R (cAMP) [2] [nM] | EC50 hGLP-1R (cAMP) [3] [nM] | EC50 hGlucagon-R (cAMP) [4] [nM]
24 | HXQGTFTSDLSKQKDEQAAQDFIEWLKAGGPSSGAPPPS (dSer at 2; K(γE-x53) at 14; C-terminal NH2) [SEQ ID NO: 34] | 0.0015 | 0.0067 |  | 
25 | HXQGTFTSDLSKQKESRAAQLFIEWLKAGGPSSGAPPPS (dSer at 2; K(γE-x53) at 14; C-terminal NH2) [SEQ ID NO: 48] | 0.0059 | 0.0536 |  | 
26 | HXQGTFTSDLSKQMDSRRAQDFIEWLKAGGPSSGAPPPS (dSer at 2; C-terminal NH2) [SEQ ID NO: 188] |  |  | 0.0896 | 0.186
27 | HXQGTFTSDLSKQMDSRRAQDFIEWLKXGGPSSGAPPPS (dSer at 2; Aib at 28; C-terminal NH2) [SEQ ID NO: 187] |  |  | 0.152 | 0.195
28 | HXQGTFTSDLSKQKESRAAQLFIEWLKAGGPSSGAPPPS (dSer at 2; K(γE-x70) at 14; C-terminal NH2) [SEQ ID NO: 45] | 0.0075 | 0.0199 |  | 
29 | HXQGTFTSDLSKQMDSRRAQDFIEWLKKGGPSSGAPPPS (dSer at 2; C-terminal NH2) [SEQ ID NO: 186] |  |  | 0.102 | 0.59
30 | HXQGTFTSDLSKQKESRAAQDFIEWLKAGGPSSGAPPPS (dSer at 2; K(GABA-x53) at 14; C-terminal NH2) [SEQ ID NO: 50] | 0.0033 | 0.0111 |  | 
31 | HXQGTFTSDLSKQKESKAAQEFIEWLKAGGPSSGAPPPS (dSer at 2; K(γE-x53) at 14; C-terminal NH2) [SEQ ID NO: 28] | 0.0055 | 0.0126 |  | 
32 | HXQGTFTSDLSKQKESKAAQDFIEWLKAGGPSSGAPPPS (dSer at 2; K(x53) at 14; C-terminal NH2) [SEQ ID NO: 32] | 0.0102 | 0.188 |  | 
33 | HXQGTFTSDLSKQXDSKAAQDFIEWLKAGGPSSGAPPPS (dSer at 2; Nle at 14; C-terminal NH2) [SEQ ID NO: 192] |  |  |  | 0.478
34 | HXQGTFTSDLSKQKESQAAQDFIEWLKAGGPSSGAPPPS (dSer at 2; K(x53) at 14; C-terminal NH2) [SEQ ID NO: 42] | 0.0102 | 0.199 |  | 
35 | HXQGTFTSDLSKQKDSQAAQDFIEWLKAGGPSSGAPPPS (dSer at 2; K(γE-x53) at 14; C-terminal NH2) [SEQ ID NO: 39] | 0.0027 | 0.0076 |  | 
36 | H[Aib]QGTFTSDLSKQK([γGlu-x53])ESKAAQDFIEWLKAGGPSSGAPPPS-NH2 (reading uncertain) [SEQ ID NO: 25] | 0.0042 | 0.0406 |  | 
37 | HXQGTFTSDLSKQLDEEAARLFIEWLKAGGPSSGAPPPS (Aib at 2; C-terminal NH2) [SEQ ID NO: 224] |  |  | 0.0013 | 2.93
38 | HXQGTFTSDLSKQLEEEAARLFIEWLKAGGPSSGAPPPS (Aib at 2; C-terminal NH2) [SEQ ID NO: 225] |  |  | 0.0007 | 2.87
39 | HXQGTFTSDLSKQKEEKKAKLFIEWLKAGGPSSGAPPPS (dSer at 2; K(γE-x53) at 14; C-terminal NH2) [SEQ ID NO: 23] | 0.0056 | 0.126 |  | 
40 | H[Aib]QGTFTSDLSKQK([γGlu-x70])ESQAAQDFIEWLKAGGPSSGAPPPS-NH2 (reading uncertain) [SEQ ID NO: 41] | 0.0033 | 0.0207 |  | 
41 | H[Aib]QGTFTSDLSKQK([γGlu-x53])DSKAAQDFIEWLKAGGPSSGAPPPS-NH2 (reading uncertain) [SEQ ID NO: 31] | 0.0017 | 0.0093 |  | 
42 | H[Aib]QGTFTSDLSKQK(x53)ESRRAQDFIEWLKAGGPSSGAPPPS-NH2 (reading uncertain) [SEQ ID NO: 5] | 0.011 | 0.109 |  | 
43 | H[Aib]QGTFTSDLSKQK(x53)ESKAAQDFIEWLKAGGPSSGAPPPS-NH2 (reading uncertain) [SEQ ID NO: 33] | 0.0112 | 0.473 |  | 
44 | H[Aib]QGTFTSDLSKQK(x53)ESQAAQDFIEWLKAGGPSSGAPPPS-NH2 (reading uncertain) [SEQ ID NO: 43] | 0.0041 | 0.443 |  | 
45 | H[Aib]QGTFTSDLSKQK([γGlu-x53])ESQAAQDFIEWLKAGGPSSGAPPPS-NH2 (reading uncertain) [SEQ ID NO: 36] | 0.0027 | 0.0459 |  | 
46 | H[Aib]QGTFTSDLSKQK([γGlu-x53])ESQAAQEFIEWLKAGGPSSGAPPPS-NH2 (reading uncertain) [SEQ ID NO: 38] | 0.0029 | 0.0531 |  | 
